Reference: publication PMC12339945

Biological target: HIV-1 Tat (E. coli, purified) (HIV-1, UniProt P12506)
Assay: NMR titration (1D 1H imino)
Conditions: protein: recombinant; tags: N-terminal His6, stated as cleaved after purification

B1: HIV Tat RNA aptamer (unlabeled) (structured_RNA)
RNA: GGGAGCUUGAUCCCGGAAACGGUCGAUCGCUCCC
B1: binds.
